Like-named read-outs stand apart in the source and are kept apart here.
T1: BODIPY-labeled staphylocoagulase SC (S7C)(1-325) (Staphylococcus aureus, UniProt P17855 27-351)
T1 sequence: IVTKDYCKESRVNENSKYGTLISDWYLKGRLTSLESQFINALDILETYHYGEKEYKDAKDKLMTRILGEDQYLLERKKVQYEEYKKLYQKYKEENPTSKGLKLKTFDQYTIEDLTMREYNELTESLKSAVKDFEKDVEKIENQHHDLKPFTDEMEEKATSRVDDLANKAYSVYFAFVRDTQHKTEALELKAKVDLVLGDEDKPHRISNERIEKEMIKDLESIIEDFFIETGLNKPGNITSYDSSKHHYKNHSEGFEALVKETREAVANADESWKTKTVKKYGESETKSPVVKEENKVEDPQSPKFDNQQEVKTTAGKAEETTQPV

T2: staphylocoagulase SC(1-246), unlabeled (Staphylococcus aureus, UniProt P17855 27-272)
T2 sequence: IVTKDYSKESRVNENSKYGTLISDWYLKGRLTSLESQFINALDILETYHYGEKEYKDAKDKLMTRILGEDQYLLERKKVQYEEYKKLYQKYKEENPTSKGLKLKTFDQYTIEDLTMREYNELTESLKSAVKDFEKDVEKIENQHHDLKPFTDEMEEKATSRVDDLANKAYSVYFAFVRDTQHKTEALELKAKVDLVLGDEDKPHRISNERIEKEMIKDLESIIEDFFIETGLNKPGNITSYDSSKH

B1: GMA-2105 murine monoclonal antibody (antibody, V domains shown)
VH: EVKLEESGGGLVQPGGSMKLSCAASGFTFSDAWMDWVRQSPEKGLEWVAEIRTKANNHATYYAESVKGRFTISRDDSKSSVYLQMNSLRAEDTGIYYCTNVYYGNNDVKDYWGQGTSVTVSP
VL: DIVMTQSQKFMSTSVGDRVSVTCKASQNVDIYVAWYQQKPGQSPKALIYSASYRFSGVPDRFTGSGSGTDFTLSISNVQSEDLAEYFCQQYNNYPYTFGGGTKLEIKR
notes: also called anti-SC(1-10) mAb; clone 2A1.5H4.B7
B2: Chimeric GMA-2105 (antibody, V domains shown)
VH: EVKLEESGGGLVQPGGSMKLSCAASGFTFSDAWMDWVRQSPEKGLEWVAEIRTKANNHATYYAESVKGRFTISRDDSKSSVYLQMNSLRAEDTGIYYCTNVYYGNNDVKDYWGQGTSVTVSP
VL: DIVMTQSQKFMSTSVGDRVSVTCKASQNVDIYVAWYQQKPGQSPKALIYSASYRFSGVPDRFTGSGSGTDFTLSISNVQSEDLAEYFCQQYNNYPYTFGGGTKLEIKR

Columns and labels:
[1] = molecular target: T1, BODIPY-labeled staphylocoagulase SC …
[2] = molecular target: T2, staphylocoagulase SC(1-246), unlabeled
Mutated Peptide Ala 9 = Mutated Peptide Ala 9 (Staphylococcus aureus); assay: solid phase competitive inhibition ELISA; peptide in solution against coated …
[3] = molecular target: Mutated Peptide Ala 8 & 9 (Staphylococcus aureus); assay: as above
Mutated Peptide Ala 8 = Mutated Peptide Ala 8 (Staphylococcus aureus); assay: as above
[4] = molecular target: T1, BODIPY-labeled staphylocoagulase SC …; assay: BODIPY fluorescence increase on titration, quadratic binding equation

Binder | Kd [1] [nM] | stoichiometry [1] | Kd [2] [nM] | binding result (Mutated Peptide Ala 9) | binding result [3] | binding result (Mutated Peptide Ala 8) | Kd [4] [nM] | stoichiometry (n) [4]
B1 | 0.99 | 2 mol staphylocoagulase/mol GMA-2105 | 4 | binds | binds | binds | 2 | 1.6 mol BODIPY-SC/mol GMA-2105
B2 | 0.79 | 2 mol staphylocoagulase/mol chimeric antibody | – | – | – | – | – | –

Source: patent US10906989 (dated 2021)
